Laboratory results as given in US20050058651A1 (published 2005).

Target: T1, rat hnRNP M4 expressed in P388D1 mouse macrophage cells by transient transfection of hnRNP M4/pBK-CMV (rat, UniProt Q62826 2-690)
T1 construct: also called pBK-CMV/hnRNP M4
T1 sequence: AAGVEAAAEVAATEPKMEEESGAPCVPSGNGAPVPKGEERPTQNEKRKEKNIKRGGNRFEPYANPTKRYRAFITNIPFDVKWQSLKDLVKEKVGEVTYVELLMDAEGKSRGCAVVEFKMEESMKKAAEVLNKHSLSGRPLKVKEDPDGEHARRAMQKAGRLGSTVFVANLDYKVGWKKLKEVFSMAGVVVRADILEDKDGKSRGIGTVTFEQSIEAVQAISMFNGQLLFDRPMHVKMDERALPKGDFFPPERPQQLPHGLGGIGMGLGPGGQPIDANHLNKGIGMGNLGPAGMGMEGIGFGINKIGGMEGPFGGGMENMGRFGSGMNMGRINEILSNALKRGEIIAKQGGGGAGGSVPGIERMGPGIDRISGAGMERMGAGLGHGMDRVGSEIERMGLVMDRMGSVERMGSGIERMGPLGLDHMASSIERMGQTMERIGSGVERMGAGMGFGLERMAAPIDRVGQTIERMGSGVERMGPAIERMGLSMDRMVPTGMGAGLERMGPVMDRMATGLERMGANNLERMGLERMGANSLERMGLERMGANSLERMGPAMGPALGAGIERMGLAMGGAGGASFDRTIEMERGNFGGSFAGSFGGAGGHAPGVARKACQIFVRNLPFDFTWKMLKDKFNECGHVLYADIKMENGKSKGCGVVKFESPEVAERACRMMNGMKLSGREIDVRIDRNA
Assay: 125I labeled CEA binding/uptake by P388D1 cells 48 h after transient transfection, compared with matching vector
Excerpt: To begin to elucidate the mechanism underlying the intracellular signaling associated with KC activation and CEA binding, the hnRNP M4 cDNA in the pBK-CMV expression vector was introduced into CEA non-responsive macrophage cell lines. The hnRNP M4 transcription in this system was driven by the CMV promoter. […] An approximately 5 times increase in CEA uptake was observed on transfecting […] of hnRNP M4/pBK-CMV plasmid. This fact implies that hnRNP M4 cDNA can initiate CEA binding in P388D1 […] macrophage cell line and can act as a receptor for CEA. […] At present, the reasons for lack of response by IC21 cells are not known.
Transient transfection of hnRNP M4 plasmid was carried out in P388D1 mouse lymphoid macrophage, IC21 mouse peritoneal and CRL2192 rat alveolar macrophage cell lines. As a positive control were used rat KC. The P388D1 cells were propagated in DMEM medium supplemented with 10% horse serum. The CRL 2192 cells were grown in F-12K medium (Kaighn's modification) supplemented with 15% FBS. The IC21 cells were grown in RPM1 1640 ATCC modified medium supplemented with 10% FBS. All cells were maintained at 37° C. in 5% CO₂ atmosphere. All tissue culture products were obtained from Life Technologies, USA. Cells for transfection were plated at 2-2.5.10⁵ cells per well in six well tissue culture clusters (Nunc products, Germany). […]

fold increase in CEA uptake (against vector-transfected cells): ~5 times
B1: carcinoembryonic antigen (CEA) (ligand, UniProt P06731 35-685, looked up)
chain: KLTIESTPFNVAEGKEVLLLVHNLPQHLFGYSWYKGERVDGNRQIIGYVIGTQQATPGPAYSGREIIYPNASLLIQNIIQNDTGFYTLHVIKSDLVNEEATGQFRVYPELPKPSISSNNSKPVEDKDAVAFTCEPETQDATYLWWVNNQSLPVSPRLQLSNGNRTLTLFNVTRNDTASYKCETQNPVSARRSDSVILNVLYGPDAPTISPLNTSYRSGENLNLSCHAASNPPAQYSWFVNGTFQQSTQELFIPNITVNNSGSYTCQAHNSDTGLNRTTVTTITVYAEPPKPFITSNNSNPVEDEDAVALTCEPEIQNTTYLWWVNNQSLPVSPRLQLSNDNRTLTLLSVTRNDVGPYECGIQNELSVDHSDPVILNVLYGPDDPTISPSYTYYRPGVNLSLSCHAASNPPAQYSWLIDGNIQQHTQELFISNITEKNSGLYTCQANNSASGHSRTTVKTITVSAELPKPSISSNNSKPVEDKDAVAFTCEPEAQNTTYLWWVNGQSLPVSPRLQLSNGNRTLTLFNVTRNDARAYVCGIQNSVSANRSDPVTLDVLYGPDTPIISPPDSSYLSGANLNLSCHSASNPSPQYSWRINGIPQQHTQVLFIAKITPNNNGTYACFVSNLATGRNNSIVKSITVSASGTSPGLSA
modifications: 125I label in the phage-lift and cell binding assays; unlabeled soluble CEA in the blot overlay
notes: also called soluble CEA; 125I labeled CEA
